# Assay results taken from patent US20170226193A1 (UNIVERSITY OF MASSACHUSETTS, published 2017).
# T1: a.a. 18-177
# T1 construct: not shown: N-terminal His tag and vector-derived linker of pET45-His
# T1 chain: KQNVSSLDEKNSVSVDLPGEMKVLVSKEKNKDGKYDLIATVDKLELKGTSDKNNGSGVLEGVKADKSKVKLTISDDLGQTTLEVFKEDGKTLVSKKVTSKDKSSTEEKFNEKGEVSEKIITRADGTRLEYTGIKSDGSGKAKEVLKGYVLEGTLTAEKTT
# T2: a.a.18-141
# T2 construct: not shown: N-terminal His tag and vector-derived linker of pET45-His
# T2 chain: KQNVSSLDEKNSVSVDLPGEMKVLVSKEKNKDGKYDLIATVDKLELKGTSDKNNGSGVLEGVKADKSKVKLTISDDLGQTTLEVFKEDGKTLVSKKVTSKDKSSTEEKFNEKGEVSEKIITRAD
# T3: a.a. 106-273
# T3 construct: not shown: N-terminal His tag and vector-derived linker of pET45-His
# T3 chain: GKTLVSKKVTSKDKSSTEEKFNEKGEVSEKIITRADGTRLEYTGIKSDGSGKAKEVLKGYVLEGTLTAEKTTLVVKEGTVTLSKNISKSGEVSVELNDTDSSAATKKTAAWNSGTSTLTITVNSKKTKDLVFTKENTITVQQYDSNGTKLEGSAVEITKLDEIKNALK
# T4: a.a. 142-273
# T4 construct: not shown: N-terminal His tag and vector-derived linker of pET45-His
# T4 chain: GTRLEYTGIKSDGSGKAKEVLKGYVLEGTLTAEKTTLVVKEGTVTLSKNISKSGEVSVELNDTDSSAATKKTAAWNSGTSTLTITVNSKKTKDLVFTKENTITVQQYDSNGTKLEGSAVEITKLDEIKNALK
# T5: a.a. 71-273
# T5 construct: not shown: N-terminal His tag and vector-derived linker of pET45-His
# T5 chain: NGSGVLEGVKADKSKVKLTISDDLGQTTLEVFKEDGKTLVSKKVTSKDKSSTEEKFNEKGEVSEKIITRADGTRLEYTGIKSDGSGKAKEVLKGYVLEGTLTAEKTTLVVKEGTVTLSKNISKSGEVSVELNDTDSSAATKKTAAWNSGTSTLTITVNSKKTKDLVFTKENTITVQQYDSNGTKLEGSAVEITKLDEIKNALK
# T6: a.a. 178-273
# T6 construct: not shown: N-terminal His tag and vector-derived linker of pET45-His
# T6 chain: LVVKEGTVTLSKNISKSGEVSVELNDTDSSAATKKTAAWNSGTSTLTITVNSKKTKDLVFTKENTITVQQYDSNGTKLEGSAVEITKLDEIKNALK
# T7: recombinant OspA of Borrelia afzelii ACA-1 (OspA-afzelii) (Borrelia afzelii ACA-1, UniProt P0A3N7 17-273)
# T7 construct: also called OspA B. afzelii; not shown: N-terminal GST tag (pGEX-4T-3) or His tag (pET45-His)
# T7 sequence: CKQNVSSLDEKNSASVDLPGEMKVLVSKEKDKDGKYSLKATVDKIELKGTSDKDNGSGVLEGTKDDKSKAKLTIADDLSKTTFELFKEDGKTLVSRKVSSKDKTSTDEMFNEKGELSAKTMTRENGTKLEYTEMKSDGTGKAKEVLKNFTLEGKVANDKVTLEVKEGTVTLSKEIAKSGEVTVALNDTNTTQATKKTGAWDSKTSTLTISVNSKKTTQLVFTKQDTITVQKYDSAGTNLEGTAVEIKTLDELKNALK
# T8: native OspA on Borrelia afzelii BO23 spirochetes (Borrelia afzelii BO23, UniProt P0A3N7 17-273)
# T8 sequence: T7 sequence
# B1: anti-OspA antibody 221-7 (antibody, V domains shown)
# VH: EVQLVQSGSEVKKPGESLKISCQVSGYSFTSYWIGWVRQMPGKGLERVGFIYPGDSDTRYSPSFQGQVTISADKSISTAYLQWSSLKASDTAMYYCARGILRYFDWFLDYWGQGTLVTVSS
# VL: AIQLTQSPSSLSASVGDRVTITCRASQGISSGSAWYQQKPGKAPKLLIYDVSSLESGVPSRFSGSGSGTEFTLTISSLQPEDFATYYCQQFNSYLLTFGGGTKVEIK
# notes: also called HuMab 221-7
# B2: anti-OspA antibody 212-55 (antibody, V domains shown)
# VH: EVQLVESGGGLVQPGGSLRLSCAASGFTFRNYWMDWVRQAPGKGLEWVANIKQDGSVKYYVDSVEGRFTISRDNAKNSLFLQMNSLRAEDTAVYYCARDGYSGYDSVGFDIWGQGTMVTVSS
# VL: EIVLTQSPGTLSLSPGERATLSCRASQSVSSSYLAWYQQKPGQAPRLLISDTSSRATGIPDRFSGSGSGTDFTLTISRLEPEDFAVYYCQQYGSSPYTFGQGTKLEIK
# notes: also called HuMab 212-55
# B3: anti-OspA antibody 857-2 (antibody, V domains shown)
# VH: EVQLVQSGEEVKKPGESLKISCKGSGYKFSSYWIGWVRQMPGKGLEWMGIIFPGDSDKRYSPSFQGQVTISADKSISTVYLQWSSLKASDTAMYYCARHITTHTYRGFFDFWGQGTLVTVSS
# VL: AIQLTQSPSSLSASVGDRVTITCRASQDISSALAWYQQKPGKAPKLLIYDVSSLESGVPSRFSGSGSGTDFTLTISSLQPEDFATYYCQQFNGYPHRLTFGGGTKVEIK
# notes: also called HuMab 857-2
# B4: anti-OspA antibody 319-44 (antibody, V domains shown)
# VH: EMQLVQSGAEVKKPGESLKISCKGSGYIFATYWIGWVRQMPGKGLEWMGIIYPNDSDTRYSPSFQGQVTISADKSINTAYLQWSSLKASDTAMYYCARTRWYFDLWGRGTLVTVSS
# VL: not shown
# notes: also called HuMab 319-44; 319-44 wild-type antibody
# Columns and labels:
# a.a. 18-177 = biological target: T1, a.a. 18-177; assay: ELISA on plate-coated OspA protein form [panel B]
# a.a.18-141 = biological target: T2, a.a.18-141; assay: ELISA on plate-coated OspA protein form [panel B]
# a.a. 106-273 = biological target: T3, a.a. 106-273; assay: ELISA on plate-coated OspA protein form [panel B]
# a.a. 142-273 = biological target: T4, a.a. 142-273; assay: ELISA on plate-coated OspA protein form [panel B]
# a.a. 71-273 = biological target: T5, a.a. 71-273; assay: ELISA on plate-coated OspA protein form [panel B]
# a.a. 178-273 = biological target: T6, a.a. 178-273; assay: ELISA on plate-coated OspA protein form [panel B]
# [1] = biological target: T9, OspA (a.a. 18-273) mutant with D249A and S250A point mutations, N-terminal His tag (Borrelia burgdorferi, UniProt P0CL66 18-273); assay: ELISA on plate-coated OspA protein form [panel B]
# T9 construct: not shown: N-terminal His tag of the pET45 vector
# [2] = biological target: T10, recombinant OspA of Borrelia garinii PBi (OspA-garinii) (Borrelia garinii PBi, UniProt Q09089 17-273); assay: SPR, Biacore 3000
# T10 construct: also called OspA B. garinii; not shown: N-terminal GST tag (pGEX-4T-3) or His tag (pET45-His)
# T10 sequence (Q09089 17-273 limits assumed): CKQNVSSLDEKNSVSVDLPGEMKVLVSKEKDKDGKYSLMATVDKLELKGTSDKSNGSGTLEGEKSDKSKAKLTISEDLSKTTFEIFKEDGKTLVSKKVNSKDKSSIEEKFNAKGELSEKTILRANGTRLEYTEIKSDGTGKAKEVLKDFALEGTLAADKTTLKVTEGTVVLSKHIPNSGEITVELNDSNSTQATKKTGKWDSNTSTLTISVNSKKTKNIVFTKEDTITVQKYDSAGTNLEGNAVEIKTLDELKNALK
# [3] = biological target: T7, recombinant OspA of Borrelia afzelii …; assay: SPR, Biacore 3000
# [4] = biological target: T11, recombinant OspA of Borrelia burgdorferi B31 (OspA-burgdorferi) (Borrelia burgdorferi B31, UniProt P0CL66 17-273); assay: SPR, Biacore 3000
# T11 construct: also called OspA B. burgdorferi; not shown: N-terminal GST tag (pGEX-4T-3) or His tag (pET45-His)
# [5] = biological target: T10, recombinant OspA of Borrelia garinii …; assay: SPR, Biacore 3000; antibody amine-coupled on CM5 chip, OspA in solution
# Method: (§1) Biacore 3000 was used to determine the affinity of HuMabs to OspA-burgdorferi, OspA-garinii and OspA-afzelii. HuMabs was captured on the surface of a Biacore chip (GE healthcare) via amine coupling (Sensor Chip CM5). The captured Mabs were exposed to various concentrations of OspA in solution. The Kₒₙ and Koff for an affinity (KD) were calculated by BIAevaluation software.
# [6] = biological target: T7, recombinant OspA of Borrelia afzelii …; assay: as above
# Method: as §1
# [7] = biological target: T11, recombinant OspA of Borrelia …; assay: as above
# Method: as §1
# [8] = biological target: native OspA on Borrelia garinii PBi spirochetes (Borrelia garinii PBi, UniProt Q09089 17-273); assay: cell-based or functional assay
# Sequence of native OspA on Borrelia garinii PBi spirochetes (Q09089 17-273 limits assumed): as above
# [9] = biological target: native OspA on Borrelia burgdorferi B31 spirochetes (Borrelia burgdorferi B31, UniProt P0CL66 17-273); assay: cell-based or functional assay
# [10] = biological target: T8, native OspA on Borrelia afzelii BO23 …; assay: cell-based or functional assay
Binder,binding result (a.a. 18-177),binding result (a.a.18-141),binding result (a.a. 106-273),binding result (a.a. 142-273),binding result (a.a. 71-273),binding result (a.a. 178-273),binding result [1],Kd [2] [nM],Kd [3] [nM],Kd [4] [nM],Kd [5] [nM],Kd [6] [nM],Kd [7] [nM],Borreliacidal activity (EC50 (nM)) [8] [nM],Borreliacidal activity (EC50 (nM)) [9] [nM],Borreliacidal activity (EC50 (nM)) [10] [nM]
B1,binds,binds,no binding,no binding,binds,no binding,binds,≤ 36,≤ 36,≤ 22,1.3,7.8,0.66,6.6,< 0.4,0.9
B2,,,,binds,,no binding,,,,,480,,,,,
B3,binds,binds,binds,no binding,binds,no binding,binds,≤ 36,≤ 36,≤ 22,1,1.6,0.65,41.6,2,2
B4,no binding,no binding,binds,binds,binds,binds,no binding,,,,674,1200,328,,< 0.4,4
